Assay results taken from patent US20230241168A1 (ALPINE IMMUNE SCIENCES, published 2023).
Numbering of substitutions follows the chain as printed. In names and notes the source's numbering stands.

T1: recombinant human APRIL (human, UniProt O75888 105-250, limits assumed)
T1 sequence (looked up): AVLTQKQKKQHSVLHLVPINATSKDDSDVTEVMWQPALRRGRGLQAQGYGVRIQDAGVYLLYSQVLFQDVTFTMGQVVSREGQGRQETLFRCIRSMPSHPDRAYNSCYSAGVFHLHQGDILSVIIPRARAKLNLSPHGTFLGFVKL

B1: CTLA-4 113 GSG4S Fc (G4S)4 TACI 688 (29-110) (Fc fusion)
chain: KAMHVAQPAVVFASSHGIASFVCEYASPWKATEVRVTVLRQADSQVTEVCAATYMTGNELTFLDDSICTGTSSGNQVNLTIQGLRAMDTGLYICKVEQMYPPPYLLGIGNGTQIYVIDPEPCPDSDGSGGGGSEPKSSDKTHTCPPCPAPEAEGAPSVFLFPPKPKDTLMISRTPEVTCVVVDVSHEDPEVKFNWYVDGVEVHNAKTKPREEQYNSTYRVVSVLTVLHQDWLNGKEYKCKVSNKALPAPIEKTISKAKGQPREPQVYTLPPSRDELTKNQVSLTCLVKGFYPSDIAVEWESNGQPENNYKTTPPVLDSDGSFFLYSKLTVDKSRWQQGNVFSCSVMHEALHNHYTQKSLSLSPGGGGGSGGGGSGGGGSGGGGSVAMRSCPEEQYWDPLLGTCMSCKTICNHQSQRTCAAFCRSLSCRKEQGKFYDHLLGDCISCASICGQHPKQCAYFCENKLRS
B2: TACI 516 (G4S)3 CTLA 4 668 (other)
chain: VAMRSCPEEQYWDPLLGTCMSCKTICNHQSQRTCAAFCRSLSCRKEQGKFYDHLLRDCISCASICGQHPKQCAYFCENKLRSGGGGSGGGGSGGGGSKAMHVAQPAVVLASSRGIASFVCEYASPGKATEVRVTVLRQADSQVTEVCAATYMMGNELTFLDDSICTGTSSGNQVNLTIQGLRAMDTGLYICKVELMYPPPYYLGIGNGTQIYVIDPEPSPDSDQDYKDDDDKHHHHHH
B3: CTLA-4 165 GSG4S Fc (G4S)2 BCMA 356 (Fc fusion)
chain: KAMHVAQPAVVLASSRGIASFVCEYASPGKATEVRVTVLRQADSQVTEVCAASYMMGNELTFPDDSICTGTSSGNQVNLTIQGLRAMDTGLYICKVEQMYPPPYYLGIGNGTQIYVIDPEPCPDSDGSGGGGSEPKSSDKTHTCPPCPAPEAEGAPSVFLFPPKPKDTLMISRTPEVTCVVVDVSHEDPEVKFNWYVDGVEVHNAKTKPREEQYNSTYRVVSVLTVLHQDWLNGKEYKCKVSNKALPAPIEKTISKAKGQPREPQVYTLPPSRDELTKNQVSLTCLVKGFYPSDIAVEWESNGQPENNYKTTPPVLDSDGSFFLYSKLTVDKSRWQQGNVFSCSVMHEALHNHYTQKSLSLSPGGGGGSGGGGSLQMAGQCSQNEYFDSLLHACIPCQLRCSSNTPPLTCQRYCNASVTNSVKGTNA
B4: CTLA-4 165 GSG4S Fc (G4S)2 BCMA 357 (Fc fusion)
chain: B3 chain with H392Y
B5: CTLA-4 92 GSG4S Fc (G4S)2 BCMA 356 (Fc fusion)
chain: B3 chain with G29W, S53T, N58S, Q82R, Y105L
B6: BCMA 381 GSG4S-Fc-(G4S)4-CTLA-4 186 (Fc fusion)
chain: LQMAGQCSQNEYFDALLYACIPCQLRCSSNTPPLTCQQYCNASVTNSVKGTNAGSGGGGSEPKSSDKTHTCPPCPAPEAEGAPSVFLFPPKPKDTLMISRTPEVTCVVVDVSHEDPEVKFNWYVDGVEVHNAKTKPREEQYNSTYRVVSVLTVLHQDWLNGKEYKCKVSNKALPAPIEKTISKAKGQPREPQVYTLPPSRDELTKNQVSLTCLVKGFYPSDIAVEWESNGQPENNYKTTPPVLDSDGSFFLYSKLTVDKSRWQQGNVFSCSVMHEALHNHYTQKSLSLSPGGGGGSGGGGSGGGGSGGGGSKAMHVAQPAVVLASSRGIASFVCEYASPWKATEVRVTVLRQADSQVTEVCAATYMMGNELTFLDDSICTGTSSGNQVNLTIQGLRAMDTGLYICKVEQMYPPPYLLGIGNGTQIYVIDPEPCPDSD
B7: Fc (G4S)2 BCMA (356) (Fc fusion)
chain: EPKSSDKTHTCPPCPAPEAEGAPSVFLFPPKPKDTLMISRTPEVTCVVVDVSHEDPEVKFNWYVDGVEVHNAKTKPREEQYNSTYRVVSVLTVLHQDWLNGKEYKCKVSNKALPAPIEKTISKAKGQPREPQVYTLPPSRDELTKNQVSLTCLVKGFYPSDIAVEWESNGQPENNYKTTPPVLDSDGSFFLYSKLTVDKSRWQQGNVFSCSVMHEALHNHYTQKSLSLSPGGGGGSGGGGSLQMAGQCSQNEYFDSLLHACIPCQLRCSSNTPPLTCQRYCNASVTNSVKGTNA
B8: Fc (G4S)2 BCMA (357) (Fc fusion)
chain: B7 chain with H259Y
B9: TACI 528 (EAAAK)6 CTLA 4 668 (other)
chain: SLSCRKEQGKFYDHLLRDCISCASICGQHPKQCAYFCENKLRSEAAAKEAAAKEAAAKEAAAKEAAAKEAAAKKAMHVAQPAVVLASSRGIASFVCEYASPGKATEVRVTVLRQADSQVTEVCAATYMMGNELTFLDDSICTGTSSGNQVNLTIQGLRAMDTGLYICKVELMYPPPYYLGIGNGTQIYVIDPEPSPDSDQDYKDDDDKHHHHHH
B10: TACI 516 (EAAAK)6 CTLA 4 668 (other)
chain: VAMRSCPEEQYWDPLLGTCMSCKTICNHQSQRTCAAFCRSLSCRKEQGKFYDHLLRDCISCASICGQHPKQCAYFCENKLRSEAAAKEAAAKEAAAKEAAAKEAAAKEAAAKKAMHVAQPAVVLASSRGIASFVCEYASPGKATEVRVTVLRQADSQVTEVCAATYMMGNELTFLDDSICTGTSSGNQVNLTIQGLRAMDTGLYICKVELMYPPPYYLGIGNGTQIYVIDPEPSPDSDQDYKDDDDKHHHHHH
B11: CTLA-4 113 GSG4S Fc (G4S)4 TACI 535 (68-110) (Fc fusion)
chain: KAMHVAQPAVVFASSHGIASFVCEYASPWKATEVRVTVLRQADSQVTEVCAATYMTGNELTFLDDSICTGTSSGNQVNLTIQGLRAMDTGLYICKVEQMYPPPYLLGIGNGTQIYVIDPEPCPDSDGSGGGGSEPKSSDKTHTCPPCPAPEAEGAPSVFLFPPKPKDTLMISRTPEVTCVVVDVSHEDPEVKFNWYVDGVEVHNAKTKPREEQYNSTYRVVSVLTVLHQDWLNGKEYKCKVSNKALPAPIEKTISKAKGQPREPQVYTLPPSRDELTKNQVSLTCLVKGFYPSDIAVEWESNGQPENNYKTTPPVLDSDGSFFLYSKLTVDKSRWQQGNVFSCSVMHEALHNHYTQKSLSLSPGGGGGSGGGGSGGGGSGGGGSSLSCRKEQGKFYDHLLGDCISCASICGQHPKQCAYFCENKLRS
B12: TACI 528 (G4S)3 CTLA 4 668 (other)
chain: SLSCRKEQGKFYDHLLRDCISCASICGQHPKQCAYFCENKLRSGGGGSGGGGSGGGGSKAMHVAQPAVVLASSRGIASFVCEYASPGKATEVRVTVLRQADSQVTEVCAATYMMGNELTFLDDSICTGTSSGNQVNLTIQGLRAMDTGLYICKVELMYPPPYYLGIGNGTQIYVIDPEPSPDSDQDYKDDDDKHHHHHH
B13: TACI 542 GSG4S Fc (G4S)4 (CTLA-4 186) (Fc fusion)
chain: SLSCRKEEGKFYDHLLQDCISCASICGQHPKQCAYFCENKLRSGSGGGGSEPKSSDKTHTCPPCPAPEAEGAPSVFLFPPKPKDTLMISRTPEVTCVVVDVSHEDPEVKFNWYVDGVEVHNAKTKPREEQYNSTYRVVSVLTVLHQDWLNGKEYKCKVSNKALPAPIEKTISKAKGQPREPQVYTLPPSRDELTKNQVSLTCLVKGFYPSDIAVEWESNGQPENNYKTTPPVLDSDGSFFLYSKLTVDKSRWQQGNVFSCSVMHEALHNHYTQKSLSLSPGGGGGSGGGGSGGGGSGGGGSKAMHVAQPAVVLASSRGIASFVCEYASPWKATEVRVTVLRQADSQVTEVCAATYMMGNELTFLDDSICTGTSSGNQVNLTIQGLRAMDTGLYICKVEQMYPPPYLLGIGNGTQIYVIDPEPCPDSD
B14: CTLA 4 165 GSG4S Fc (G4S)2 TACI 516 (Fc fusion)
chain: KAMHVAQPAVVLASSRGIASFVCEYASPGKATEVRVTVLRQADSQVTEVCAASYMMGNELTFPDDSICTGTSSGNQVNLTIQGLRAMDTGLYICKVEQMYPPPYYLGIGNGTQIYVIDPEPCPDSDGSGGGGSEPKSSDKTHTCPPCPAPEAEGAPSVFLFPPKPKDTLMISRTPEVTCVVVDVSHEDPEVKFNWYVDGVEVHNAKTKPREEQYNSTYRVVSVLTVLHQDWLNGKEYKCKVSNKALPAPIEKTISKAKGQPREPQVYTLPPSRDELTKNQVSLTCLVKGFYPSDIAVEWESNGQPENNYKTTPPVLDSDGSFFLYSKLTVDKSRWQQGNVFSCSVMHEALHNHYTQKSLSLSPGGGGGSGGGGSVAMRSCPEEQYWDPLLGTCMSCKTICNHQSQRTCAAFCRSLSCRKEQGKFYDHLLRDCISCASICGQHPKQCAYFCENKLRS
B15: CTLA 4 92 GSG4S Fc (G4S)2 TACI 516 (Fc fusion)
chain: B14 chain with G29W, S53T, N58S, Q82R, Y105L

Legend:
[1] = molecular target: T1, recombinant human APRIL; experiment: cell-based or functional assay
[2] = molecular target: recombinant human BAFF (human, UniProt Q9Y275 134-285); experiment: cell-based or functional assay

| Binder | IC50 (nM) APRIL [1] [nM] | IC50 APRIL (Δ Parental vTD) [1] [ratio] | IC50 (nM) BAFF [2] [nM] | IC50 BAFF (Δ Parental vTD) [2] [ratio] |
| --- | --- | --- | --- | --- |
| B1 | 8.25 | 1.4 | 0.566 | 0.4 |
| B2 | – | – | 8.75 | 3.4 |
| B3 | 0.894 | 0 | 36.8 | 0.9 |
| B4 | 0.606 | 0.9 | 11.8 | 2.2 |
| B5 | 0.809 | 0 | 33.5 | 0.8 |
| B6 | 0.876 | – | 0.0617 | – |
| B7 | 42.7 | 1 | 42.7 | 1 |
| B8 | 0.696 | 1 | 5.44 | 1 |
| B9 | – | – | 5.18 | 2 |
| B10 | 138 | 15 | 3.42 | 1.3 |
| B11 | 8.63 | – | 0.506 | 0.4 |
| B12 | – | – | 8.41 | 3.3 |
| B13 | 1.2 | – | 0.179 | – |
| B14 | 4.64 | 0.9 | 0.928 | 0.5 |
| B15 | 6.75 | 1.3 | 1.73 | 1 |
